Assay results published in publication PMC5608694, “The crystal structure of the regulatory domain of the human sodium-driven chloride/bicarbonate exchanger” (Scientific Reports, 2017).

Target: the molecule itself
Test: SEC; 1 mg of ntcNDCBE on Superdex 200 10/300 GL; eluted at 14.2 mL, compared with molecular weight standards

B1: truncated (ΔVR1) N-terminal cytoplasmic domain of human sodium-driven chloride/bicarbonate exchanger NDCBE-D (domain or fragment, UniProt Q2Y0W8-4 40-344, looked up)
chain: DTPSQRVQFILGTEEDEEHVPHELFTELDEICMKEGEDAEWKETARWLKFEEDVEDGGERWSKPYVATLSLHSLFELRSCLINGTVLLDMHANSIEEISDLILDQQELSSDLNDSMRVKVREALLKKHHHQNEKKRNNLIPIVRSFAEVGKKQSDPHLMDKHGQTVSPQSVPTTNLEVKNGVNCEHSPVDLSKVDLHFMKKIPTGAEASNVLVGEVDILDRPIVAFVRLSPAVLLSGLTEVPIPTRFLFILLGPVGKGQQYHEIGRSMATIMTDEIFHDVAYKAKERDDLLAGIDEFLDQVTVLP
notes: human NDCBE (SLC4A8) isoform D, N-terminal cytoplasmic core domain, amino acids 40-344 (made by mutagenesis from the 40-425 construct); numbers count on: isoform D (Q2Y0W8-4); Forms a homodimer in the crystal and in solution; Codon-optimised gene in pET-M11; His tag removed with TEV protease; also called ntcNDCBE; regulatory N-terminal domain of human NDCBE; source: E. coli BL21 Gold, purified …
stoichiometry N: 2
